In FireProtDB (doi:10.1021/bi00416a052) one finds Tm data, which are given here for one protein.

For the data set the following is noted: Escherichia coli (strain K12), Thermal, CD, NaCl 0.1 M, reversible: yes, whole UniProt chain shown.

B1: Ribonuclease HI wild type, P0A7Y4 (protein)
chain: MLKQVEIFTDGSCLGNPGPGGYGAILRYRGREKTFSAGYTRTTNNRMELMAAIVALEALKEHCEVILSTDSQYVRQGITQWIHNWKKRGWKTADKKPVKNVDLWQRLDAALGQHQIKWEWVKGHAGHPENERCDELARAAAMNPTLEDTGYQVEV
Broadly, the Tm is the temperature at which the thermal transition is half complete. For the protein B1, the Tm worked out at 49.8 °C (pH 3, glycine-HCl 10 mM) and 52 °C (pH 5.5, Sodium acetate 20 mM).
